Target: T1, RALA peptide
T1 chain: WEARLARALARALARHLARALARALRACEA

B1: proteinase K (protein)
chain: AAQTNAPWGLARISSTSPGTSTYYYDESAGQGSCVYVIDTGIEASHPEFEGRAQMVKTYYYSSRDGNGHGTHCAGTVGSRTYGVAKKTQLFGVKVLDDNGSGQYSTIIAGMDFVASDKNNRNCPKGVVASLSLGGGYSSSVNSAAARLQSSGVMVAVAAGNNNADARNYSPASEPSVCTVGASDRYDRRSSFSNYGSVLDIFGPGTSILSTWIGGSTRSISGTSMATPHVAGLAAYLMTLGKTTAASACRYIADTANKGDLSNIPFGTVNLLAYNNYQA
- release of DNA from RALA/pEGFP-N1 nanoparticles on agarose gel after 30 min with 20% proteinase K (0.1 mg/mL): the RALA peptide is cleaved by proteinase K thus releasing the DNA into solution
